Drawing on PMC5477490, this text covers stoichiometry N and percent of parent for 5 substances.

The target of experiment [1] is HA ectodomain of A/Washington/05/2011(H1N1) (influenza A virus A/Washington/05/2011(H1N1)). Description: crystal structure.
Experiment [2] has the same target. Description: not stated; purified HA ectodomain in solution; data in Supplementary Fig. 2.
A further experiment has as its target 3E1 Fab, P01857;P01834. The note with it: parent: est. 100; read off a plot.

“HA ectodomain of A/Washington/05/2011(H1N1) (domain or fragment)”: the stoichiometry N in experiment [1] and in experiment [2] was 3 each time.
As to “full-length, wild-type HA from A/Washington/05/2011 (H1N1) HA2:I45F”, the percent of parent with 3E1 Fab, P01857;P01834 worked out at 1%.
Regarding “full-length, wild-type HA from A/Washington/05/2011 (H1N1) HA2:D19N”, the percent of parent in the experiment with 3E1 Fab, P01857;P01834 turned out to be 7%.
Turning to “full-length, wild-type HA from A/Washington/05/2011 (H1N1) HA1:NAT”, the percent of parent with 3E1 Fab, P01857;P01834 was found to be 2%.
Turning to “full-length, wild-type HA from A/Washington/05/2011 (H1N1) HA1:H18Q”, the percent of parent with 3E1 Fab, P01857;P01834 turned out to be 1%.

By stoichiometry N is commonly meant a count of units in the complex or per binding partner.
